{"source": "patent US9416353B2", "about": "“Covalent tethering of functional groups to proteins and substrates therefor” (Promega Corporation, priority 2004, dated 2016)", "key": {"[1]": {"assay": "pH-indicator dye assay of hydrolysis of Cl-alkanes by DhaA (WT or mutant)", "format": "biochemical", "settings": "0.1 mg/ml of enzyme, 10 mM substrate, pH 7.0-8.2", "description": "To study the effect of a point mutation on the activity of DhaA (WT or mutant) hydrolysis of Cl-alkanes, a pH-indicator dye system as described by Holloway et al. (1998) was employed."}, "[2]": {"assay": "Precipitation of DhaA.WT and mutants with (NH4)2SO4", "format": "physicochemical", "settings": "2 hours, 4° C.", "method": "Aliquots of the supernatant obtained from E. coli expressing DhaA (WT or one of the mutants) were treated with increasing concentrations of (NH4)2SO4. The proteins were exposed to each (NH4)2SO4 concentration for 2 hours (4° C.), pelleted by centrifugation, dialyzed overnight against buffer A, and resolved on SDS-PAGE."}, "[3]": {"format": "binding", "settings": "biotin-PEG4-14-Cl substrate"}, "[4]": {"assay": "Thermostability analysis of purified DhaA mutants (residual labeling activity, FP)", "format": "physicochemical", "settings": "for thermostability (residual activity): 60 minute incubations at various temperature", "method": "The thermostability profiles of the DhaA mutants were determined by measuring the residual activity of the purified proteins following 15, 30 or 60 minute incubations at 4, 22, 30, 37, 42, 50 or 60° C. The FP assay was performed at room temperature (about 25° C.). […] For each clone, the labeling rate (slope of the linear range) was calculated for each condition. The rate observed following a 15 minute incubation at 4° C. was arbitrarily assigned as 100% activity. The residual activity (%) was calculated for each condition. To determine stability, for each incubation time, the % of residual activity was plotted against the incubation temperatures. To calculate half-life, for each incubation temperature, the % of residual activity was plotted against the incubation time. The time where 50% activity was lost was extrapolated from the graph."}, "[5]": {"assay": "DhaA capture using immobilized biotin chloroalkane substrates (streptavidin plates, ELISA-type)", "format": "binding", "settings": "for reaction with immobilized biotin-PEG4-14-Cl: titration", "method": "Using an excess of substrate (about 2 μmol), the plates could bind approximately 75 μmol of biotin per well. […] Reactions between immobilized substrate and mutant DhaAs were performed using purified GST-DhaA-Flag fusions. Various concentrations of protein (100 μL; diluted in PBSTB) were incubated with immobilized substrate for various times at 25° C., and the reactions were stopped by emptying the plates and washing 4× with PBST. To detect bound DhaA, 100 μL anti-GST-HRP (Amersham) was added to each well at a 1:10,000 dilution (in PBSTB) and the plates incubated for 1 hour at 25° C."}, "[6]": {"assay": "In vivo stability of DhaA mutants in transiently transfected CHO-K1 cells", "format": "cell-based", "settings": "12, 24 and 48 hours post-transfection", "method": "(§1) Proteins (2-10 μl/lane) were resolved on SDS-PAGE (4-20% gradient gels)."}, "[7]": {"settings": "MagneGST assay", "protocol": "Bacterial colonies were picked into 96-well plates containing LB+Amp and incubated with shaking at 30° C. The cultures were diluted 1:20 into 96 well plates containing fresh TB medium, Amp and 0.1 mM IPTG. The plates were incubated at 30° C. with shaking overnight. The 96 well plates containing the IPTG induced cultures were centrifuged and supernatants removed. DhaA mutants were normalized for protein concentration by saturating protein capture on MagneGST™ PMPs. […] The plates were shaken at about 900 rpm for 10 minutes at room temperature. The particles were washed three times with PBST using a MagnaBot® 96 magnetic separation device. The wash solution was removed and MagneGST™ elution solution was added and the plates were allowed to shake at room temperature (about 900 rpm for 5 minutes). Supernatants were transferred to a new, flat bottom, transparent 96 well plate and the fluorescence intensity was measured using an excitation wavelength at 550 nm and an emission wavelength at 580 nm.\nFour colonies at random of each identified hit were inoculated into 200 μL LB+Amp and grown overnight at 30° C. in flat bottom 96 well plates. Overnight cultures were diluted 1:50 into 200 μL TB ampicillin supplemented with 0.1 mM IPTG and grown overnight at 30° C. and 37° C. Induced cultures were re-assayed using the MagneGST™ based screen."}, "[8]": {"assay": "In vivo labeling of DhaA mutants expressed in CHO-K1 cells (cell-to-gel analysis)", "format": "cell-based", "settings": "5 μM substrate", "method": "as §1"}, "[9]": {"assay": "Hydrolysis of FAP by GST-BlaZ (WT or mutants)", "format": "biochemical", "settings": "up to 60 minutes of co-incubation", "method": "The chromogenic substrate 6-β-[(Furylacryloyl)amido]penicillanic acid triethylamine salt (FAP) was purchased from Calbiochem (La Jolla, Calif.). […] All assays were performed at 25° C. in 0.1 M potassium phosphate buffer at pH 6.8."}}, "data": [{"molecule": "DhaA.WT: wild-type Rhodococcus rhodochrous dehalogenase (DhaA), generally GST at the N-terminus and FLAG at the C-terminus (protein, UniProt P0A3G2 1-293, looked up, N-terminal GST, C-terminal FLAG tag) Haloalkane dehalogenase: MSEIGTGFPFDPHYVEVLGERMHYVDVGPRDGTPVLFLHGNPTSSYLWRNIIPHVAPSHRCIAPDLIGMGKSDKPDLDYFFDDHVRYLDAFIEALGLEEVVLVIHDWGSALGFHWAKRNPERVKGIACMEFIRPIPTWDEWPEFARETFQAFRTADVGRELIIDQNAFIEGALPKCVVRPLTEVEMDHYREPFLKPVDREPLWRFPNELPIAGEPANIVALVEAYMNWLHQSPVPKLLFWGTPGVLIPPAEAARLAESLPNCKTVDIGPGLHYLQEDNPDLIGSEIARWLPAL", "values": [{"measurement": "activity with 1-Cl-butane", "setting": "[1]", "value": "5 units/mg of protein"}]}, {"molecule": "DhaA.H272A: DhaA mutant, His272 replaced with Ala (protein, UniProt P0A3G2 1-293, looked up, variant H272A) Haloalkane dehalogenase: MSEIGTGFPFDPHYVEVLGERMHYVDVGPRDGTPVLFLHGNPTSSYLWRNIIPHVAPSHRCIAPDLIGMGKSDKPDLDYFFDDHVRYLDAFIEALGLEEVVLVIHDWGSALGFHWAKRNPERVKGIACMEFIRPIPTWDEWPEFARETFQAFRTADVGRELIIDQNAFIEGALPKCVVRPLTEVEMDHYREPFLKPVDREPLWRFPNELPIAGEPANIVALVEAYMNWLHQSPVPKLLFWGTPGVLIPPAEAARLAESLPNCKTVDIGPGLAYLQEDNPDLIGSEIARWLPAL", "values": [{"measurement": "(NH4)2SO4 concentration that precipitates the protein", "setting": "[2]", "value": 10, "unit": "%"}]}, {"molecule": "DhaA.H272G: DhaA mutant, His272 replaced with Gly (protein, UniProt P0A3G2 1-293, looked up, variant H272G) Haloalkane dehalogenase: MSEIGTGFPFDPHYVEVLGERMHYVDVGPRDGTPVLFLHGNPTSSYLWRNIIPHVAPSHRCIAPDLIGMGKSDKPDLDYFFDDHVRYLDAFIEALGLEEVVLVIHDWGSALGFHWAKRNPERVKGIACMEFIRPIPTWDEWPEFARETFQAFRTADVGRELIIDQNAFIEGALPKCVVRPLTEVEMDHYREPFLKPVDREPLWRFPNELPIAGEPANIVALVEAYMNWLHQSPVPKLLFWGTPGVLIPPAEAARLAESLPNCKTVDIGPGLGYLQEDNPDLIGSEIARWLPAL", "values": [{"measurement": "(NH4)2SO4 concentration that precipitates the protein", "setting": "[2]", "value": 10, "unit": "%"}]}, {"molecule": "DhaA.H272F YL: DhaA.H272F based mutant with Y273L (protein, UniProt P0A3G2 1-293, looked up, variant H272F Y273L) Haloalkane dehalogenase: MSEIGTGFPFDPHYVEVLGERMHYVDVGPRDGTPVLFLHGNPTSSYLWRNIIPHVAPSHRCIAPDLIGMGKSDKPDLDYFFDDHVRYLDAFIEALGLEEVVLVIHDWGSALGFHWAKRNPERVKGIACMEFIRPIPTWDEWPEFARETFQAFRTADVGRELIIDQNAFIEGALPKCVVRPLTEVEMDHYREPFLKPVDREPLWRFPNELPIAGEPANIVALVEAYMNWLHQSPVPKLLFWGTPGVLIPPAEAARLAESLPNCKTVDIGPGLFLLQEDNPDLIGSEIARWLPAL", "values": [{"measurement": "signal relative to the parental clones", "setting": "[3]", "value": "significantly improved"}, {"measurement": "thermostability (residual activity)", "setting": "[4]", "value": "relatively unstable at temperatures above 30 °C"}, {"measurement": "reaction with immobilized biotin-PEG4-14-Cl", "setting": "[5]", "value": "react most efficiently"}]}, {"molecule": "DhaA.H272F YM: DhaA.H272F based mutant with Y273M (protein, UniProt P0A3G2 1-293, looked up, variant H272F Y273M) Haloalkane dehalogenase: MSEIGTGFPFDPHYVEVLGERMHYVDVGPRDGTPVLFLHGNPTSSYLWRNIIPHVAPSHRCIAPDLIGMGKSDKPDLDYFFDDHVRYLDAFIEALGLEEVVLVIHDWGSALGFHWAKRNPERVKGIACMEFIRPIPTWDEWPEFARETFQAFRTADVGRELIIDQNAFIEGALPKCVVRPLTEVEMDHYREPFLKPVDREPLWRFPNELPIAGEPANIVALVEAYMNWLHQSPVPKLLFWGTPGVLIPPAEAARLAESLPNCKTVDIGPGLFMLQEDNPDLIGSEIARWLPAL", "values": [{"measurement": "signal relative to the parental clones", "setting": "[3]", "value": "significantly improved"}, {"measurement": "thermostability (residual activity)", "setting": "[4]", "value": "relatively unstable at temperatures above 30 °C"}, {"measurement": "reaction with immobilized biotin-PEG4-14-Cl", "setting": "[5]", "value": "react most efficiently"}]}, {"molecule": "DhaA.H272F YC: DhaA.H272F based mutant with Y273C (protein, UniProt P0A3G2 1-293, looked up, variant H272F Y273C) Haloalkane dehalogenase: MSEIGTGFPFDPHYVEVLGERMHYVDVGPRDGTPVLFLHGNPTSSYLWRNIIPHVAPSHRCIAPDLIGMGKSDKPDLDYFFDDHVRYLDAFIEALGLEEVVLVIHDWGSALGFHWAKRNPERVKGIACMEFIRPIPTWDEWPEFARETFQAFRTADVGRELIIDQNAFIEGALPKCVVRPLTEVEMDHYREPFLKPVDREPLWRFPNELPIAGEPANIVALVEAYMNWLHQSPVPKLLFWGTPGVLIPPAEAARLAESLPNCKTVDIGPGLFCLQEDNPDLIGSEIARWLPAL", "values": [{"measurement": "signal relative to the parental clones", "setting": "[3]", "value": "significantly improved"}, {"measurement": "thermostability (residual activity)", "setting": "[4]", "value": "relatively unstable at temperatures above 30 °C"}]}, {"molecule": "DhaA.H272F H11: first generation DhaA.H272F mutant with K175M and C176G (protein, UniProt P0A3G2 1-293, looked up, variant K175M C176G H272F) Haloalkane dehalogenase: MSEIGTGFPFDPHYVEVLGERMHYVDVGPRDGTPVLFLHGNPTSSYLWRNIIPHVAPSHRCIAPDLIGMGKSDKPDLDYFFDDHVRYLDAFIEALGLEEVVLVIHDWGSALGFHWAKRNPERVKGIACMEFIRPIPTWDEWPEFARETFQAFRTADVGRELIIDQNAFIEGALPMGVVRPLTEVEMDHYREPFLKPVDREPLWRFPNELPIAGEPANIVALVEAYMNWLHQSPVPKLLFWGTPGVLIPPAEAARLAESLPNCKTVDIGPGLFYLQEDNPDLIGSEIARWLPAL", "values": [{"measurement": "thermostability (residual activity)", "setting": "[4]", "value": "retained significant labeling activity following incubation as high as 50 °C"}, {"measurement": "half-life", "setting": "[4]; at 50° C.", "value": 58, "unit": "min"}, {"measurement": "reaction with immobilized biotin substrates", "setting": "[5]; all biotin substrates tested", "value": "reacted poorly"}, {"measurement": "production of active protein (fluorescent signal after labeling)", "setting": "[6]", "value": "more active protein after 48 hours"}, {"measurement": "signal relative to the respective parents", "setting": "[7]", "value": "considerably higher signal"}, {"measurement": "in vivo labeling performance compared to parent DhaA.H272F", "setting": "[8]", "value": "superior performance characteristics"}]}, {"molecule": "DhaA.H272F: DhaA mutant, catalytic His272 replaced with Phe (protein, UniProt P0A3G2 1-293, looked up, variant H272F) Haloalkane dehalogenase: MSEIGTGFPFDPHYVEVLGERMHYVDVGPRDGTPVLFLHGNPTSSYLWRNIIPHVAPSHRCIAPDLIGMGKSDKPDLDYFFDDHVRYLDAFIEALGLEEVVLVIHDWGSALGFHWAKRNPERVKGIACMEFIRPIPTWDEWPEFARETFQAFRTADVGRELIIDQNAFIEGALPKCVVRPLTEVEMDHYREPFLKPVDREPLWRFPNELPIAGEPANIVALVEAYMNWLHQSPVPKLLFWGTPGVLIPPAEAARLAESLPNCKTVDIGPGLFYLQEDNPDLIGSEIARWLPAL", "values": [{"measurement": "thermostability (residual activity)", "setting": "[4]", "value": "stable up to temperatures of 40 °C"}]}, {"molecule": "DhaA.H272Q: DhaA mutant, His272 replaced with Gln (protein, UniProt P0A3G2 1-293, looked up, variant H272Q) Haloalkane dehalogenase: MSEIGTGFPFDPHYVEVLGERMHYVDVGPRDGTPVLFLHGNPTSSYLWRNIIPHVAPSHRCIAPDLIGMGKSDKPDLDYFFDDHVRYLDAFIEALGLEEVVLVIHDWGSALGFHWAKRNPERVKGIACMEFIRPIPTWDEWPEFARETFQAFRTADVGRELIIDQNAFIEGALPKCVVRPLTEVEMDHYREPFLKPVDREPLWRFPNELPIAGEPANIVALVEAYMNWLHQSPVPKLLFWGTPGVLIPPAEAARLAESLPNCKTVDIGPGLQYLQEDNPDLIGSEIARWLPAL", "values": [{"measurement": "(NH4)2SO4 concentration that precipitates the protein", "setting": "[2]", "value": 10, "unit": "%"}]}, {"molecule": "BlaZ.N170Q (protein, UniProt P00807 25-281, looked up, variant N170Q) Beta-lactamase: KELNDLEKKYNAHIGVYALDTKSGKEVKFNSDKRFAYASTSKAINSAILLEQVPYNKLNKKVHINKDDIVAYSPILEKYVGKDITLKALIEASMTYSDNTANNKIIKEIGGIKKVKQRLKELGDKVTNPVRYEIELNYYSPKSKKDTSTPAAFGKTLNKLIANGKLSKEQKKFLLDLMLNNKSGDTLIKDGVPKDYKVADKSGQAITYASRNDVAFVYPKGQSEPIVLVIFTNKDNKSDKPNDKLISETAKSVMKEF", "values": [{"measurement": "hydrolysis of FAP", "setting": "[9]", "value": "could not be detected"}]}]}
